Data from patent publication US12427188B2, “Pyocyanine demethylases and related phenazine degrading agents compositions, methods and systems for interfering with viability of bacteria” (priority 2020, dated 2025).

Assays:
[1] = test system: Pseudomonas aeruginosa aggregate biofilms; conditions: previous experiments, succinate-minimal medium, 27 hours; cited from earlier work
[2] = Protein yield of PodA variants purified from inclusion bodies of overexpression culture
Protocol: Protein overproduction and purification of soluble and inclusion body fractions. Plasmids coding for proteins of interest were transformed into E. coli BL21 […]. […]. Cultures were grown at 37° C. with shaking to an optical density of 0.4 (OD600 nm) and plasmid expression was induced with IPTG (50 μM) and shaken overnight at 16° C. Cells were harvested by centrifugation at 5,000×g for 10 min in a Beckman Coulter Avanti J-20 XOI refrigerated centrifuge using a JLA-8.1000 rotor at 4° C. Cell pellets were stored at −80° C. until used.
For purification of PodA from inclusion bodies, the pellets remaining following lysis and centrifugation at 40,000×g were resuspended in 20 mL of detergent buffer [50 mM HEPES (pH 7.5) and 1% Triton-X (v/v)] using a Bio-gen PRO200 cell homogenizer (PRO Scientific). Sample was spun for 15 min at 40,000×g at 4° C. in a Beckman Coulter Avanti centrifuge with a JA-25.50 rotor. Supernatant was discarded and the remaining cell pellet was resuspended in 5 mL of buffer [50 mM HEPES (pH 7.5), 500 mM NaCl] using a cell homogenizer, supplemented with lysozyme (200 μg mL^−1), and incubated for 10 min. Volume was increased to 20 mL with HEPES (50 mM, pH 7) and sample was spun for 40,000×g at 4° C. for 15 min. Supernatant was discarded and pellet was homogenized in 10 mL of denaturing buffer 50 mM HEPES (pH 7.5), 500 mM NaCl, and 8M urea) and incubating rocking overnight. The sample was spun at for 40,000×g at 25° C. for 30 min and supernatant was incubated with 1 mL HisPur Ni-NTA resin (Thermo Fisher Scientific) on a rocking platform for 10 min. Beads were allowed to settle without shaking, supernatant was discarded, and resin was pipetted into glass gravity columns. Resin was washed with 15 mL of denaturing buffer, followed by an elution with denaturing buffer supplemented with imidazole (500 mM). Fractions were analyzed by SDS-PAGE and those containing protein were combined into SnakeSkin 3.5 K MWCO dialysis tubing (Thermo Fisher Scientific). Urea was slowly dialyzed out in HEPES (50 mM, pH 7.5) and NaCl (500 mM) by lowing urea concentrations by 1 M increments. Each step was dialyzed at RT for 30 min. Protein was dialyzed in HEPES (50 mM, pH 7.5), NaCl (500 mM), and imidazole (20 mM) overnight at 4° C. The following day, protein was cleaved for 3 h at 25° C. with TEV protease (1:50 mg:mg ratio of TEV to PodA). The sample was applied to a HisPur gravity column and cleaved protein in the flow thru was confirmed by SDS-PAGE. Cleaved PodA protein was then dialyzed for storage for 3 h at 4° C. in HEPES (50 mM pH 7.5), NaCl (250 mM) and finally in HEPES (50 mM, pH 7.5), NaCl (100 mM), and glycerol (20%, v/v). Protein concentration was established on a NanoDrop™ using the extinction coefficient and MW of each protein. Protein was drop frozen in LN2 and stored at −80° C. until use.

Pseudomonas aeruginosa = experiment: Crystal violet biofilm assay; type: cell-based; conditions: 24 h incubation, protein added from the beginning
Protocol: Crystal violet assay. Pseudomonas aeruginosa grown overnight in LB were inoculated (1.5%, v/v) and grown for 24 h at 37° C. in 96-well round bottom plates in minimal medium (100 μL) with arginine (40 mM) as the sole carbon source. PodA was added with cells simultaneously and was present during growth and biofilm development. Planktonic cells were removed and attached cells were quantified with crystal violet staining (125 μL. 0.1% w/v), followed by washes with water and de-staining with an acetic acid (30%, v/v) mixture in water. Crystal violet was measured using a SpectraMax® M3 Microplate Reader (Molecular Devices) at an absorbance of 550 nm. Details of procedure were published previously (28)[43].

[3] = Continuous spectrophotometric PYO demethylation assay (specific activity and kinetics of PodA); type: biochemical
Protocol: Specific activity and kinetics of PodA. To determine specific activity and kinetic parameters of PodA for PYO, a continuous spectrophotometric assay monitoring the absorbance of PYO (690 nm) was utilized. Briefly, assays were performed at 25° C. in 100 μL reaction volumes in 96-well plates and reactions were monitored at 690 nm over 10 min. Reaction mixtures contained Phosphate buffer (50 mM, pH 6.0), ethylene glycol (1%, v/v), protein (3 μM) and substrate (for specific activity, 100 μM, for kinetics, varying). Data were acquired using the SpectraMax® M3 Microplate Reader (Molecular Devices) using the Soft Max Pro software every 10 s over 10 min. Path lengths for each well were calculated using Soft Max Pro endpoint readings and slopes were corrected for path lengths of 1 cm.
Specific activity was calculated from the slope of the linear range of (ΔOD690 min^−1) using Beer's Law (A=εcl) with a path length of 1 cm and the molar extinction coefficient of PYO (4,130 M^−1 cm^−1). Equation was solved for c, giving specific activity in nmol min^−1 mg^−1 of PodA. For kinetic parameters, graphs of initial velocity (μM s^−1) versus substrate concentration (μM) were plotted using Prism v8 (GraphPad). The Michaelis-Menten kinetics model was used to determine Km and Vmax. The turnover number (kcat) was determined using the following equation: Vmax=kcat[E], where [E] was the concentration of PodA added. All spectrophotometric assays mentioned above were completed thrice, each in technical triplicate with a representative data set shown. Error bars represent standard deviation as calculated by Prism v8 (GraphPad). Standard deviation for kcat and Kcat KM^−1 was calculated using standard formulas for propagation of error.

[4] = pH 6, 1% ethylene glycol, PodA 3 μM, substrate PYO

B1: WT PodA41-162: Truncated wild-type pyocyanin demethylase from Mycobacterium fortuitum (MFORT_14352) lacking N-terminal membrane helix, SEQ ID NO: 3 (protein)
chain: VTMTLDVKNDQVAKHDFGKPGMDVGDMDIFSDILSVDGKQVGYDGGACFFTNVTPDNPMTYCELTIHLDAGEIFARSLTPHTLAPFTMAITGGTGEYANSKGELTVSGVATPDEKYELKLTK
[1]
  aggregate development in ABBA: smaller aggregates in anoxic regions of the agar
[2]; per L of bacterial culture, typical
  protein yields: ~0.3 mg/L
[2]; purified from inclusion bodies, per L of E. coli overexpression culture
  Yield: 0.33 mg/L^−1
Pseudomonas aeruginosa
  biofilm attachment (crystal violet): biofilm attachment defect
[3]; buffers pH 5.5-10.0, PodA 3 μM, PYO 100 μM
  pH of optimal activity: 6
[3]; cystic fibrosis sputum range, 66 mM Na+, 15 mM K+
  Effect of salts (NaCl and KCl) on activity: did not inhibit or enhance
[3]; [4]
  Km: 372 µM
  catalytic efficiency: 4.74±0.24×10^2 M^−1 s^−1
  kcat: 0.176 ± 0.003 s⁻¹
[3]; pH 6, PodA 3 μM, PYO 100 μM
  Effect of slight increase in viscosity (ethylene glycol or glycerol 1% v/v) on activity: enhanced
[3]; protein from soluble fraction
  catalytic efficiency: 1.05±0.093×10^2 M^−1 s^−1
[3]; protein purified from inclusion bodies, denatured and refolded
  catalytic efficiency: 1.14±0.25×10^2 M^−1 s^−1
